These results are taken from the supplement of paper PMC9170038.

This data set has as its system K4 kissing-loop RNA reporter. The data set can be described thus: apparent KD of K4 kissing-loop reporter; higher = weaker reporter binding. The note with it: Eterna round: R107. On the procedure:
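RNA-MaP round R107: designed RNA switches with theophylline, tryptophan, arginine or FMN aptamers are transcribed on-chip within common flanks. They are titrated with a labelled K4 kissing-loop RNA reporter in RNA-MaP buffer (100 mM Tris pH 7.5, 80 mM KCl, 4 mM MgCl2), without ligand or with the indicated ligand. Median apparent KD per design.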

[1] abbreviates: input ligand: theophylline 20 uM.
[2] abbreviates: input ligand: tryptophan 2.4 mM.
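Also: bound reporter read as fluorescence of individual clusters on recovered sequencing chips by microscopy, with normalized cluster intensities fitted with a binding model.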

Regarding “AAAUCGUUCAGAAGGAGCGUGGAUUAUUCUUAAAUAUUUAUUACGAGUGAUGUUCGUAAUUCACAGGUAGGUCGCUGAUCGAUAA [JR_ExcArginiB_Sub003]”, the “apparent KD of K4 kissing-loop reporter” value runs as follows: (input ligand: FMN 200 uM) 102 nM; (input ligand: arginine 13.2 mM) 137 nM; (input ligand: none) 106 nM; under setting [1], 121 nM; under setting [2], 105 nM.

For “UCCUAGGCUCGAAAGAGCCUAGGAUUGACUCAGGAUAUCCGGAAACGGAGAAGGGAGUCACUAGUGAUGUUAGGGAUUCCCUAUU”, the “apparent KD of K4 kissing-loop reporter” value by setting is: (input ligand: FMN 200 uM) 312 nM; (input ligand: arginine 13.2 mM) 91.2 nM; (input ligand: none) 100 nM; under setting [1], 85.9 nM; under setting [2], 94.2 nM.

Consider “CAUACGCAUGGAGGAUAUGAGAUUACUCAUAUUACCCUGUAACAGGUAUCUCAGUGAUGUUGAGACUCAGAAGGCCAUGUGUAUG [Ex FMN B 22]”, for which the “apparent KD of K4 kissing-loop reporter” value reads like this: (input ligand: FMN 200 uM) 713 nM; (input ligand: arginine 13.2 mM) 354 nM; (input ligand: none) 415 nM; under setting [1], 435 nM; under setting [2], 387 nM.

As to “CCGAAGAACCAGUGAUGUUGGUUGACUAGACAGGAUAUGAGCAACAUCAGAAGGGUCUGGCUUCGGGAGUGGGUCACGCUGACCU [Iserreanor]”, the “apparent KD of K4 kissing-loop reporter” value reads like this: (input ligand: FMN 200 uM) 271 nM; (input ligand: arginine 13.2 mM) 282 nM; (input ligand: none) 426 nM; under setting [1], 912 nM; under setting [2], 808 nM.

Consider “CUGACCAACAGCGAUACCAGUGUGGAGUGAUGUUCCCUGGUCCGGGCUGAUGUUCCCUUGCGCCCUUGGCAGCGCAGAAGCAGGU [Exclusion Theophylline B GF 13]”, for which the “apparent KD of K4 kissing-loop reporter” value by setting is: (input ligand: FMN 200 uM) 433 nM; (input ligand: arginine 13.2 mM) 295 nM; (input ligand: none) 359 nM; under setting [1], 349 nM; under setting [2], 338 nM.

For “GUAGACGUACCUUCAGUGAUGUUGAAGGAUACCAGAUGUUAUCACAUCCCUUGGCAGCCUUGGGAUAACAGUGAGUCGGAAUAUG [Essoaran]”, the “apparent KD of K4 kissing-loop reporter” value (input ligand: FMN 200 uM) was 170 nM; the “apparent KD of K4 kissing-loop reporter” value (input ligand: arginine 13.2 mM) stood at 142 nM; the “apparent KD of K4 kissing-loop reporter” value (input ligand: none) stood at 184 nM; the “apparent KD of K4 kissing-loop reporter” value under setting [1] was determined as 159 nM; the “apparent KD of K4 kissing-loop reporter” value under setting [2] stood at 168 nM.

Turning to “AAUAAUAAUAAAUAUAGAUUGAUGAGGAAACGAGGACCGGUACGGCCGCCACUCGAGUGAUGUUCGAGAACCUCAUCAAUCAUAA [AK4.7 Exc Tryptophan A]”, the “apparent KD of K4 kissing-loop reporter” value is 171 nM (input ligand: FMN 200 uM); 132 nM (input ligand: arginine 13.2 mM); 166 nM (input ligand: none); 154 nM under setting [1]; 382 nM under setting [2].

Turning to “UUCAGGUGUUCGGCCGCCACUCCAGUGAUGUUGGAGUGGCUUCACAAGGGCCAGGACAAUGUAAGGAGGACCGGGAAUAUCGCAG [Quonerar]”, the “apparent KD of K4 kissing-loop reporter” value (input ligand: FMN 200 uM) was determined as 127 nM; the “apparent KD of K4 kissing-loop reporter” value (input ligand: arginine 13.2 mM) amounted to 116 nM; the “apparent KD of K4 kissing-loop reporter” value (input ligand: none) is 123 nM; the “apparent KD of K4 kissing-loop reporter” value under setting [1] was determined as 89.2 nM; the “apparent KD of K4 kissing-loop reporter” value under setting [2] was determined as 134 nM.

As for “AGUCCACUCUAAAGAGUGGACCUAAGGGAUACCAGUGAUGUUGGUCACCCUUGGCAGCCCACUGUCAUCGAUAAAGAUGGCAGAA”, the “apparent KD of K4 kissing-loop reporter” value reads like this: (input ligand: FMN 200 uM) 120 nM; (input ligand: arginine 13.2 mM) 98.1 nM; (input ligand: none) 114 nM; under setting [1], 122 nM; under setting [2], 116 nM.

Regarding “AGACUACUGAUAGGAUAUAACAUCCUAGUCGUAUACCGAAAGGUAUACGAUUCCCUUCUAGUGAUGUUAGAAGGGUCGGUAGUCA [Omei KL FMN B Exc B v12]”, the “apparent KD of K4 kissing-loop reporter” value reads like this: (input ligand: FMN 200 uM) 78.5 nM; (input ligand: arginine 13.2 mM) 69.2 nM; (input ligand: none) 71.3 nM; under setting [1], 60.9 nM; under setting [2], 78.9 nM.

Consider “UGGCAAGUGAUGUUUGCGUUUCCGCAGGAUACCAGUCUGUCUUGAGACCCUUGGCAGCCUGGGUACAGUCCAAGCGGUCACACGA [theeternabot_exclusion_KL_Theo_A_38]”, for which the “apparent KD of K4 kissing-loop reporter” value by setting is: (input ligand: FMN 200 uM) 371 nM; (input ligand: arginine 13.2 mM) 297 nM; (input ligand: none) 405 nM; under setting [1], 375 nM; under setting [2], 285 nM.

On to “GCCGUAGAUUGAAGGAGCGUGGACCUAUCGCUUGAACAGUGAUGUUGUUUAUCUAGGAAGCCGCAGGUAGGUCGCAAUCUACGGC”, for which the “apparent KD of K4 kissing-loop reporter” value (input ligand: FMN 200 uM) is 331 nM; the “apparent KD of K4 kissing-loop reporter” value (input ligand: arginine 13.2 mM) came to 292 nM; the “apparent KD of K4 kissing-loop reporter” value (input ligand: none) worked out at 420 nM; the “apparent KD of K4 kissing-loop reporter” value under setting [1] was 337 nM; the “apparent KD of K4 kissing-loop reporter” value under setting [2] was 382 nM.

In the case of “AGGUUUUGAUCAGGAUAUGCAUUGACGAUGAGAAUAUAGUGAUGUUAUAUACUACGAAUUAGUAAAGUAGAAGGGAUUGAGGUUU [SSFMNB.aB]”, the “apparent KD of K4 kissing-loop reporter” value was determined as 747 nM (input ligand: FMN 200 uM); 565 nM (input ligand: arginine 13.2 mM); 820 nM (input ligand: none); 898 nM under setting [1]; 518 nM under setting [2].

In the case of “GGGAGUUAUUACGGCAGGGUCGAUACGGAUACCAGUAGGCGGCUCUACCCUUGGCAGCCGUAACAUGGUAGUGAUGUUAUCAGUC [theeternabot_exclusion_KL_Theo_A_24]”, the “apparent KD of K4 kissing-loop reporter” value reads like this: (input ligand: FMN 200 uM) 527 nM; (input ligand: arginine 13.2 mM) 420 nM; (input ligand: none) 518 nM; under setting [1], 468 nM; under setting [2], 405 nM.

With “UUUAUUAAGACGGCCGCCACUGAUUCAUAGUGAUGUUAUGAUAUAAUUUUAGUGAUAUGCAUUAGCAGGACCGGGUCAAUUAUUA [JR_ExcTryptoB_Sub017]”, the “apparent KD of K4 kissing-loop reporter” value reads like this: (input ligand: FMN 200 uM) 158 nM; (input ligand: arginine 13.2 mM) 146 nM; (input ligand: none) 166 nM; under setting [1], 142 nM; under setting [2], 173 nM.

For the sequence “AGAGAUAUAUGAGGAUAUGAGAUAGUUAAUGAGUGAGUUAUAGUGUUGUUUGGUUAGUGAUGUUAUUUAGAAGGCGUGAGUGAUG [immumullin]”, the “apparent KD of K4 kissing-loop reporter” value reads like this: (input ligand: FMN 200 uM) 130 nM; (input ligand: arginine 13.2 mM) 94.7 nM; (input ligand: none) 110 nM; under setting [1], 119 nM; under setting [2], 82.5 nM.

Consider “GUGCGGCUAGUGAUGUUGGUUGCGUGGGAAGGAGCGCAGAAACAUGCAGGUAGGUCGCCCACACCUCUGAAAGAAGGUUAAUUCA [Biistian]”, for which the “apparent KD of K4 kissing-loop reporter” value (input ligand: FMN 200 uM) was 218 nM; the “apparent KD of K4 kissing-loop reporter” value (input ligand: arginine 13.2 mM) was 140 nM; the “apparent KD of K4 kissing-loop reporter” value (input ligand: none) worked out at 203 nM; the “apparent KD of K4 kissing-loop reporter” value under setting [1] is 231 nM; the “apparent KD of K4 kissing-loop reporter” value under setting [2] is 207 nM.

In the case of “CGCAGUGAUGUUGCGAGCAGCUACAGGGAAGGAGCGCUUUAGUAAGCAGGUAGGUCGCCCACGCAGUGAUGUUGCGUCAUAGGGU [Exclusion Arginine A GF 20]”, the “apparent KD of K4 kissing-loop reporter” value reads like this: (input ligand: FMN 200 uM) 158 nM; (input ligand: arginine 13.2 mM) 123 nM; (input ligand: none) 117 nM; under setting [1], 100 nM; under setting [2], 111 nM.

Take “UGACUUGCCUGAGGAUAUCUAGGAUAUCCAUAAAAGGAAAUAAUAGUUCAGUGAUGUUGGAGAAGGAGAGAAGGCAGGUAAGUCU [KL-XFMN-B18 #DoubleAptamer #SwitchBubble]”: the “apparent KD of K4 kissing-loop reporter” value runs as follows: (input ligand: FMN 200 uM) 671 nM; (input ligand: arginine 13.2 mM) 514 nM; (input ligand: none) 493 nM; under setting [1], 737 nM; under setting [2], 448 nM.

On to “AAAGACUGACUGCAAUUAGCAGUCAGUCAACGAGGACCGGUACGGCCGCCACUCGGGUCCUAGAGUGAUGUUCUAAUAAUAUAAU [Default title]”, for which the “apparent KD of K4 kissing-loop reporter” value was 279 nM (input ligand: FMN 200 uM); 367 nM (input ligand: arginine 13.2 mM); 432 nM (input ligand: none); 466 nM under setting [1]; 167 nM under setting [2].
